{
  "source": "paper PMC3050670",
  "key": {"[1]": {"target": "HIV-1 CA A14C/E45C (HIV-1 (human immunodeficiency virus type 1))", "assay": "cross-linking"}, "[2]": {"target": "HIV-1 CA A14C/E45C/W184A/M185A (HIV-1 (human immunodeficiency virus type 1))", "assay": "SEC"}, "[3]": {"target": "HIV-1 CA A42C/T54C (HIV-1 (human immunodeficiency virus type 1))", "assay": "cross-linking"}, "[4]": {"target": "HIV-1 CA N21C/A22C (HIV-1 (human immunodeficiency virus type 1))", "assay": "cross-linking"}},
  "data": [
    {"substance": "HIV-1 CA A14C/E45C (natural protein)", "values": [
      {"measurement": "crosslinking efficiency", "setting": "[1]", "result": "> 90", "unit": "%"},
      {"measurement": "stoichiometry N", "setting": "[1]", "result": 6}
    ]},
    {"substance": "HIV-1 CA A14C/E45C/W184A/M185A (natural protein)", "values": [
      {"measurement": "stoichiometry N", "setting": "[2]", "result": 6}
    ]},
    {"substance": "HIV-1 CA A42C/T54C (natural protein)", "values": [
      {"measurement": "crosslinked 6-mer band, share of the total protein", "setting": "[3]", "result": 30, "unit": "%"},
      {"measurement": "maximal crosslinking", "setting": "[3]", "result": 50, "unit": "%"},
      {"measurement": "stoichiometry N", "setting": "[3]", "result": 6}
    ]},
    {"substance": "HIV-1 CA N21C/A22C (natural protein)", "values": [
      {"measurement": "stoichiometry N", "setting": "[4]", "result": 5}
    ]}
  ]
}
